B1: Mothers against decapentaplegic homolog 4 (Homo sapiens), Q13485 (parent)
chain: MDNMSITNTPTSNDACLSIVHSLMCHRQGGESETFAKRAIESLVKKLKEKKDELDSLITAITTNGAHPSKCVTIQRTLDGRLQVAGRKGFPHVIYARLWRWPDLHKNELKHVKYCQYAFDLKCDSVCVNPYHYERVVSPGIDLSGLTLQSNAPSSMMVKDEYVHDFEGQPSLSTEGHSIQTIQHPPSNRASTETYSTPALLAPSESNATSTANFPNIPVASTSQPASILGGSHSEGLLQIASGPQPGQQQNGFTGQPATYHHNSTTTWTGSRTAPYTPNLPHHQNGHLQHHPPMPPHPGHYWPVHNELAFQPPISNHPAPEYWCSIAYFEMDVQVGETFKVPSSCPIVTVDGYVDPSGGDRFCLGQLSNVHRTEAIERARLHIGKGVQLECKGEGDVWVRCLSDHAVFVQSYYLDREAGRAPGDAVHKIYPSAYIKVFDLRQCHRQMQQQAATAQAAAAAQAAAVAGNIPGPGSVGGIAPAISLSAAAGIGVDDLRRLCILRMSFVKGWGPDYPRQSIKETPCWIEIHLHRALQLLDEVLHTMPIADPQPLD

Variants of: B1
Settings: with e2f8_human E2F8, A0AVK6

Row | effect of a mutation on the interaction | Variant
1 | with no effect | G386D

Variants of: B1
Settings: with if4e_human EIF4E

Row | effect of a mutation on the interaction | Variant
2 | with no effect | G386D

Variants of: B1
Settings: with epha2_human EPHA2, P29317

Row | effect of a mutation on the interaction | Variant
3 | with no effect | G386D

Variants of: B1
Settings: with epha7_human EPHA7, Q15375

Row | effect of a mutation on the interaction | Variant
4 | with no effect | G386D

Variants of: B1
Settings: with ephb1_human EPHB1, P54762

Row | effect of a mutation on the interaction | Variant
5 | with no effect | G386D

Variants of: B1
Settings: with erbb3_human ERBB3, P21860

Row | effect of a mutation on the interaction | Variant
6 | with no effect | G386D

Variants of: B1
Settings: with erbb4_human ERBB4, Q15303

Row | effect of a mutation on the interaction | Variant
7 | with no effect | G386D

Variants of: B1
Settings: with esr1_human ESR1, P03372
Sequence of esr1_human ESR1, P03372 (P03372 whole entry): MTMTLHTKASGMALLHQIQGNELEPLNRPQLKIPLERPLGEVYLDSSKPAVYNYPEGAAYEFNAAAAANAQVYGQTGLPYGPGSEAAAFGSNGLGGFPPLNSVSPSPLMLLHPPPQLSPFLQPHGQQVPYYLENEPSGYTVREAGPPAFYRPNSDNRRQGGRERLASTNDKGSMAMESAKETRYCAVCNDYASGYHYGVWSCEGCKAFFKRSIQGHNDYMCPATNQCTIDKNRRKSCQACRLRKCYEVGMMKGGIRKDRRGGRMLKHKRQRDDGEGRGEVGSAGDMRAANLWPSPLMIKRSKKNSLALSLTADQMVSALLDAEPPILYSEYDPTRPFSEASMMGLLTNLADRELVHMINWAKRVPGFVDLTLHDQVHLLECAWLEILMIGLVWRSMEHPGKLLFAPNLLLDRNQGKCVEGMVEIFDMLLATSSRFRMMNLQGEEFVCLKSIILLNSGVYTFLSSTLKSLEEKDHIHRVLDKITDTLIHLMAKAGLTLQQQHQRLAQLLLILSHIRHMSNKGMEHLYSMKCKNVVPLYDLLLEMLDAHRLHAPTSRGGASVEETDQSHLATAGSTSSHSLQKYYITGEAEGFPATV

Row | effect of a mutation on the interaction | Variant
8 | with no effect | G386D

Variants of: B1
Settings: with etv1_human ETV1, P50549

Row | effect of a mutation on the interaction | Variant
9 | with no effect | G386D

Variants of: B1
Settings: with ezh2_human EZH2, Q15910

Row | effect of a mutation on the interaction | Variant
10 | with no effect | G386D

Variants of: B1
Settings: with fadd_human FADD

Row | effect of a mutation on the interaction | Variant
11 | with no effect | G386D

Variants of: B1
Settings: with facd2_human FANCD2, Q9BXW9
Sequence of facd2_human FANCD2, Q9BXW9 (Q9BXW9 whole entry): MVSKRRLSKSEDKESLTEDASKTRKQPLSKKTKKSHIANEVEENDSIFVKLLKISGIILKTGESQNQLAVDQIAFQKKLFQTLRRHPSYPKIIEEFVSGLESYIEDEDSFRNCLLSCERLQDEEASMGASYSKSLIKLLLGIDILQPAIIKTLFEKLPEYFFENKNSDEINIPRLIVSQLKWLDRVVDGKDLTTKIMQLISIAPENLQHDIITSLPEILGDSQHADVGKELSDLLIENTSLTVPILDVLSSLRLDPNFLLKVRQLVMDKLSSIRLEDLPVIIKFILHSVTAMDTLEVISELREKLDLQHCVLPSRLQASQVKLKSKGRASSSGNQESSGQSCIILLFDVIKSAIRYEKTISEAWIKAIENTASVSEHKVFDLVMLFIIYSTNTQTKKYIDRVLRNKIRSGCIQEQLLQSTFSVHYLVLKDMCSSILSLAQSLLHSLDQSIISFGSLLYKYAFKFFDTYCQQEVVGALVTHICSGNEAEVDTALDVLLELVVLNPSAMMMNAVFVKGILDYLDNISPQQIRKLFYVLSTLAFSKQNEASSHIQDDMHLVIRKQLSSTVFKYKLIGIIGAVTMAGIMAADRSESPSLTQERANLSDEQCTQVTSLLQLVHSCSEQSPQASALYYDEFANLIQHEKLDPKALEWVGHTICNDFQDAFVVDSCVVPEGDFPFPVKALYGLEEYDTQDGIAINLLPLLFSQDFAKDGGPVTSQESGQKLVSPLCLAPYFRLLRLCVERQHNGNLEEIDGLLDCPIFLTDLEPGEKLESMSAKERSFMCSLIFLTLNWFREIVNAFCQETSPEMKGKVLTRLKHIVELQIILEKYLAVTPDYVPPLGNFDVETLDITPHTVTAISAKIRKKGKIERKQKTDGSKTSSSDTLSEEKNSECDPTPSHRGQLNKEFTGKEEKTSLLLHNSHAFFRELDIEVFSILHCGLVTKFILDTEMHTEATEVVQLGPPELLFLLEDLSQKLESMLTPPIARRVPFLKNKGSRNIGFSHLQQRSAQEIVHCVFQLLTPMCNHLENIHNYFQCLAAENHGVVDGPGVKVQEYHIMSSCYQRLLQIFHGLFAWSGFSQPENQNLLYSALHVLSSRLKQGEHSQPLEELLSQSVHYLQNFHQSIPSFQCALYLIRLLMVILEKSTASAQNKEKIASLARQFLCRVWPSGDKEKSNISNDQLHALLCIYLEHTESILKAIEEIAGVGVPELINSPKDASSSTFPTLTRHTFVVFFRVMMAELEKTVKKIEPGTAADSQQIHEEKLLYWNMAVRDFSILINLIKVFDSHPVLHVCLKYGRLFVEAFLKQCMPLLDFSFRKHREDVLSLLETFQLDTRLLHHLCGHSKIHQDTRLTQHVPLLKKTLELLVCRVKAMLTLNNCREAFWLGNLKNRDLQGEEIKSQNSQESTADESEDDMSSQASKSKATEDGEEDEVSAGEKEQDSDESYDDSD

Row | effect of a mutation on the interaction | Variant
12 | with no effect | G386D

Variants of: B1
Settings: with tnr6_human FAS

Row | effect of a mutation on the interaction | Variant
13 | with no effect | G386D

Variants of: B1
Settings: with fgf19_human FGF19, O95750
Sequence of fgf19_human FGF19, O95750 (O95750 whole entry): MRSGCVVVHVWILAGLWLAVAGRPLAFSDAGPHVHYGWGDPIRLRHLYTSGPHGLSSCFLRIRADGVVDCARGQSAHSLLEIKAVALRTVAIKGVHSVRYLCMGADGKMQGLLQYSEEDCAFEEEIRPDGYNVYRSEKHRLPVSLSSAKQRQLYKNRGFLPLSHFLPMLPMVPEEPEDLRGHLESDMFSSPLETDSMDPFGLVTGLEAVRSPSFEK

Row | effect of a mutation on the interaction | Variant
14 | with no effect | G386D

Variants of: B1
Settings: with fgfr3_human FGFR3, P22607
Sequence of fgfr3_human FGFR3, P22607 (P22607 whole entry, looked up): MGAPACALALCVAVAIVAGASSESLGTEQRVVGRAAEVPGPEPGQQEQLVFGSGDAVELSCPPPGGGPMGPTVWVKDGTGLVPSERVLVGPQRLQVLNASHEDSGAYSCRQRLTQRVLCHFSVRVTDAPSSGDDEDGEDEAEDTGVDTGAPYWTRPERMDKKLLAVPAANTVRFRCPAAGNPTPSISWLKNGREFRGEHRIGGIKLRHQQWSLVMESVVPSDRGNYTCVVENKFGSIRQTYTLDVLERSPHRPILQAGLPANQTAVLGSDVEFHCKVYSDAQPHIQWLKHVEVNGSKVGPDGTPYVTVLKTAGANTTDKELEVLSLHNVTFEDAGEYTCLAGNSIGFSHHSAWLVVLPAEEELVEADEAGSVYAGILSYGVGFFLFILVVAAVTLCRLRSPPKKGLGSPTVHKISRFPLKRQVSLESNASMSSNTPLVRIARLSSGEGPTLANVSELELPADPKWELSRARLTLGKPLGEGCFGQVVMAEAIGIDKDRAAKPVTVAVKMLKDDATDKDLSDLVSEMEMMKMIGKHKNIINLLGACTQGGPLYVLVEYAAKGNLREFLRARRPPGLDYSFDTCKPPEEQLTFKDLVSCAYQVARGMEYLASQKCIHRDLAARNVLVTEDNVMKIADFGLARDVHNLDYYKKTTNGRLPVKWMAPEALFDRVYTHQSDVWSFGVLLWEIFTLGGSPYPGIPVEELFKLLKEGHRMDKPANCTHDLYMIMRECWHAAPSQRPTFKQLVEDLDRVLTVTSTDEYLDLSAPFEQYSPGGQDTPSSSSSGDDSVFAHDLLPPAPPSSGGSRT

Row | effect of a mutation on the interaction | Variant
15 | with no effect | G386D

Variants of: B1
Settings: with fgfr4_human FGFR4, P22455

Row | effect of a mutation on the interaction | Variant
16 | with no effect | G386D

Variants of: B1
Settings: with foxo1_human FOXO1, Q12778

Row | effect of a mutation on the interaction | Variant
17 | with no effect | G386D

Variants of: B1
Settings: with foxo3_human FOXO3, O43524

Row | effect of a mutation on the interaction | Variant
18 | with no effect | G386D

Variants of: B1
Settings: with gbra6_human GABRA6, Q16445

Row | effect of a mutation on the interaction | Variant
19 | with no effect | G386D

Variants of: B1
Settings: with gata2_human GATA2, P23769

Row | effect of a mutation on the interaction | Variant
20 | with no effect | G386D

Variants of: B1
Settings: with gata3_human GATA3, P23771

Row | effect of a mutation on the interaction | Variant
21 | with no effect | G386D

Variants of: B1
Settings: with gna11_human GNA11, P29992

Row | effect of a mutation on the interaction | Variant
22 | with no effect | G386D

Variants of: B1
Settings: with gna13_human GNA13, Q14344

Row | effect of a mutation on the interaction | Variant
23 | with no effect | G386D

Variants of: B1
Settings: with gnaq_human GNAQ

Row | effect of a mutation on the interaction | Variant
24 | with no effect | G386D

Variants of: B1
Settings: with grm1_human GRM1, Q13255

Row | effect of a mutation on the interaction | Variant
25 | with no effect | G386D

Variants of: B1
Settings: with grm3_human GRM3, Q14832

Row | effect of a mutation on the interaction | Variant
26 | with no effect | G386D

Variants of: B1
Settings: with gsk3a_human GSK3A

Row | effect of a mutation on the interaction | Variant
27 | with no effect | G386D

Variants of: B1
Settings: with gsk3b_human GSK3B

Row | effect of a mutation on the interaction | Variant
28 | with no effect | G386D

Variants of: B1
Settings: with hdac1_human HDAC1, Q13547

Row | effect of a mutation on the interaction | Variant
29 | with no effect | G386D

Variants of: B1
Settings: with hdac3_human HDAC3, O15379

Row | effect of a mutation on the interaction | Variant
30 | with no effect | G386D

Variants of: B1
Settings: with hgf_human HGF

Row | effect of a mutation on the interaction | Variant
31 | with no effect | G386D

Variants of: B1
Settings: with hif1a_human HIF1A

Row | effect of a mutation on the interaction | Variant
32 | with no effect | G386D

Variants of: B1
Settings: with h31_human H3C1, P68431

Row | effect of a mutation on the interaction | Variant
33 | with no effect | G386D

Variants of: B1
Settings: with hlab_human HLA-B

Row | effect of a mutation on the interaction | Variant
34 | with no effect | G386D

Variants of: B1
Settings: with hnf1a_human HNF1A

Row | effect of a mutation on the interaction | Variant
35 | with no effect | G386D

Variants of: B1
Settings: with rash_human HRAS

Row | effect of a mutation on the interaction | Variant
36 | with no effect | G386D

Variants of: B1
Settings: with hs90a_human HSP90AA1, P07900

Row | effect of a mutation on the interaction | Variant
37 | with no effect | G386D

Variants of: B1
Settings: with igf2_human IGF2, P01344

Row | effect of a mutation on the interaction | Variant
38 | with no effect | G386D

Variants of: B1
Settings: with il7ra_human IL7R

Row | effect of a mutation on the interaction | Variant
39 | with no effect | G386D

Variants of: B1
Settings: with int12_human INTS12, Q96CB8

Row | effect of a mutation on the interaction | Variant
40 | with no effect | G386D

Variants of: B1
Settings: with irf6_human IRF6, O14896

Row | effect of a mutation on the interaction | Variant
41 | with no effect | G386D

Variants of: B1
Settings: with irs1_human IRS1, P35568

Row | effect of a mutation on the interaction | Variant
42 | with no effect | G386D

Variants of: B1
Settings: with ist1_human IST1, P53990

Row | effect of a mutation on the interaction | Variant
43 | with no effect | G386D

Variants of: B1
Settings: with jak1_human JAK1, P23458

Row | effect of a mutation on the interaction | Variant
44 | with no effect | G386D

Variants of: B1
Settings: with jak3_human JAK3, P52333
Sequence of jak3_human JAK3, P52333 (P52333 whole entry): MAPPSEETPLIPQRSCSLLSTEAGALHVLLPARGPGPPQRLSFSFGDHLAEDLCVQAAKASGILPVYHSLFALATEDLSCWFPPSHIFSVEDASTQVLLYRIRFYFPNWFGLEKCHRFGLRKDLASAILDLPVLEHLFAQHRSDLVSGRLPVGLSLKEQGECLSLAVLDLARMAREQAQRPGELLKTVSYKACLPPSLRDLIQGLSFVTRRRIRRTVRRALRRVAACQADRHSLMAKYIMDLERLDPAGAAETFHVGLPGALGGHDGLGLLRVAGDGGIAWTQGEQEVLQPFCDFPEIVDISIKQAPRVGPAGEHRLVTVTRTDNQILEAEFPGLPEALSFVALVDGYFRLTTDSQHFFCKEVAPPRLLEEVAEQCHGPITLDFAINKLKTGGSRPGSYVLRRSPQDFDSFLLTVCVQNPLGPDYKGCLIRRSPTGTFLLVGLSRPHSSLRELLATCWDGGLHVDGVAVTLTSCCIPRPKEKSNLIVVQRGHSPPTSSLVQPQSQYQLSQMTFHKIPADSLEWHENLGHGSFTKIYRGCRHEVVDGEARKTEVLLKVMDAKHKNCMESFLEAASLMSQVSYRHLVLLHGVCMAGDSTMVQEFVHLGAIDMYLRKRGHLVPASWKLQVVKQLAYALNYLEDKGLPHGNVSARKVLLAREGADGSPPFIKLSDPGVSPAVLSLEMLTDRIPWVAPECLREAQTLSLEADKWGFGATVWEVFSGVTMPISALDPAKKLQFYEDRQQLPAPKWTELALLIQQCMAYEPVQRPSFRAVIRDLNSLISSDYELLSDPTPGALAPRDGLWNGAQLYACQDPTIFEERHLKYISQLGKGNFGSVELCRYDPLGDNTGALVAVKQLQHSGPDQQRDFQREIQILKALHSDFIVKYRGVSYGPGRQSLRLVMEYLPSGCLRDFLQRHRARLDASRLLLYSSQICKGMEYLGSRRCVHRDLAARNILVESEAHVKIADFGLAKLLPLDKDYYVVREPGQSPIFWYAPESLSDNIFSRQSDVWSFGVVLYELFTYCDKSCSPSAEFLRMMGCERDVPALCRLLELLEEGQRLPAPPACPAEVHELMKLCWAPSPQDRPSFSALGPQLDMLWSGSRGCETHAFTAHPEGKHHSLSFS

Row | effect of a mutation on the interaction | Variant
45 | with no effect | G386D

Variants of: B1
Settings: with kat2a_human KAT2A

Row | effect of a mutation on the interaction | Variant
46 | with no effect | G386D

Variants of: B1
Settings: with kdm5c_human KDM5C

Row | effect of a mutation on the interaction | Variant
47 | with no effect | G386D

Variants of: B1
Settings: with kdm6a_human KDM6A

Row | effect of a mutation on the interaction | Variant
48 | with no effect | G386D

Variants of: B1
Settings: with vgfr2_human KDR

Row | effect of a mutation on the interaction | Variant
49 | with no effect | G386D

Variants of: B1
Settings: with keap1_human KEAP1, Q14145

Row | effect of a mutation on the interaction | Variant
50 | with no effect | G386D

Variants of: B1
Settings: with klf4_human KLF4, O43474
Sequence of klf4_human KLF4, O43474 (O43474 whole entry): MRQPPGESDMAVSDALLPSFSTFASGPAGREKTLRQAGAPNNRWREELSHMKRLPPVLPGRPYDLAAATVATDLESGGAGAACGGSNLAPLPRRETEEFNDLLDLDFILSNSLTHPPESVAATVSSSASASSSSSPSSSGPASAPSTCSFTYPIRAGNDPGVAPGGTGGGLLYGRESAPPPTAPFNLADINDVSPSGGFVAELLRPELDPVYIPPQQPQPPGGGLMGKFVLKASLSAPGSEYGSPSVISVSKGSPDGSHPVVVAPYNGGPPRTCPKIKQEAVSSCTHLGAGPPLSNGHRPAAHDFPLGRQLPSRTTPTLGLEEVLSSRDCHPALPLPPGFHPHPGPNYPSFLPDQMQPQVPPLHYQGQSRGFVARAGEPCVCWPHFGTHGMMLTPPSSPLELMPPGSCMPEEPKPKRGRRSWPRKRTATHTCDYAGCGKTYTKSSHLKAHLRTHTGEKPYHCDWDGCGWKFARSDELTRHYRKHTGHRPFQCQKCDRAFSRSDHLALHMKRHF

Row | effect of a mutation on the interaction | Variant
51 | with no effect | G386D

Variants of: B1
Settings: with lims1_human LIMS1, P48059

Row | effect of a mutation on the interaction | Variant
52 | with no effect | G386D

Variants of: B1
Settings: with maga6_human MAGEA6, P43360
Sequence of maga6_human MAGEA6, P43360 (P43360 whole entry): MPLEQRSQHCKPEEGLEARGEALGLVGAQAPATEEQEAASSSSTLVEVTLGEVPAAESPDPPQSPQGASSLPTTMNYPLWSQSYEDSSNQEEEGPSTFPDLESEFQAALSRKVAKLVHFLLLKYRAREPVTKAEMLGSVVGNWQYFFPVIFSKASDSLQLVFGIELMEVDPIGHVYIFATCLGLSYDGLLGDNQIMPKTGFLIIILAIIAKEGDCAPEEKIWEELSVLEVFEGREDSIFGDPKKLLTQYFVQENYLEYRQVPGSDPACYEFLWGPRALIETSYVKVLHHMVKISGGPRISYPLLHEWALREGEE

Row | effect of a mutation on the interaction | Variant
53 | with no effect | G386D

Reference: IntAct's records for PubMed 35512704
